Assay results reported in the nanobody polyreactivity screen of Harvey et al. (2022).

Assay: yeast display, Sf9 membrane polyspecificity reagent, FACS + sequencing; frameworks hold sequencing errors
Procedure, shortened: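 Genes from sorted yeast were amplified by colony PCR, read by MiSeq 2 × 250 sequencing and filtered on CDR length. These cells carried a synthetic nanobody library in Saccharomyces cerevisiae BJ5465 and were sorted by FACS into low and high (top ~1%) gates on anti-HA and streptavidin fluorescence. Polyreactivity is labelled according to the gate of origin.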

Sequence | polyreactivity (PSR sort gate)
QVQLVESGGGLVQAGGSLRLSCAASGFIFWWYAMGWYRQAPGKERELVATITASVGSTNYADSVKGRFTISRDTAKNTVYLQMNSLKPEDTAVYYCATDIIGAIRDWDHTRMDYWGQGTQVTVSS | low polyreactivity
QVQLVESGGGLVQAGGSLRLSCAASGRTFKFYAMGWYRQAPGKERELVAAISSSGGRTYYADSVKGRFTISRDNAKNTVYLQMNSLTPEDTAVYYCAAVPGSKFVQKDDYWGQGTQVTVSS | low polyreactivity
QVQLVESGGGLVQAGGSLRLSCAASGITFKYYVMGWYRQAPGKERELVARITRRSGSTYYADSVKGRFTISRDNAKNTVYLQMNSLKPEDTAVYYCAASPHSRSDYGYWGQGTQVTVSS | high polyreactivity
QVQHVESGGGLVQAGGSLRLSCAASGRIFSTNPMGWSRQAPGKERELVAAITTSGGITYYADSVKGRFTISRDNAKNTVYLQMNSLKPEDTGVYYCNTGYYGRLRDDYWGQGTQVTVSS | high polyreactivity
QVQLVESGGGLVQAGGSLRLSCAASGITFEPNDMGWYRQAPGKERELVAAISWSGGDTYYADSVKGRFTISRDNAKNTVYLQMNSLKPEDTAVYYCAAESWVAYEYWGQGTQVTVSS | low polyreactivity
QVQLVESGGCLVQAGGSLRLSCAASGFIFRYNAMGWYRQAPGKERELVAAISWSGTTYYADSVKGRFTISRDNAKNTVYLQMNSLKPEDTAVFYCAAGRLFYGYRDFDYWGQGTQVTVSS | low polyreactivity
QVQLVESGGGLVQAGGSLRLSCAASGSTFVVYAMGWYRQAPGKERELVAAIDLSVGDTYYADSVKGRFTISRDNAKNTVYLQMNSLKPEDTAVYYCNVAVYYWRWIYGYWGQGTQVTVSS | low polyreactivity
QVQLVESGGGLVQAGGSLRLSCAASGSINHYAMGWYRQAPGKERELVAAISSSGGTTYYADSVKGRFTISRDNAKNTVYLQMNSLKPEDTAVYYCAADKLSGGLDYWGQGTQVTVSS | high polyreactivity
QVQIVESGGGLVQAGGSLRLSCAASGRIFVGYAMGWYRQAPGKERELFAAISRDGDNTFYADSVKGRFTISRDNAKNTVYLQMNSLKPEDTAVYYCAVDFCVWYGSAYAYDYYWGQGTQVTVSS | low polyreactivity
QVQLVESGGGLVHAGGSLRLSCAASGFIFFSNAMGWYRQAPGKERELVATISTSSGSTYADSVKGRFTNSRDNAKNTVYLQMNSLKPEDTAVYYCAADTQGYDYDYWGQGTQVTVSS | low polyreactivity
QVQLVESGGGLVQAGGSLRLSCAAYGSTFSRYAMGWYRQAPGKERELVAAISWGGNTYYADSVKGRFTISRDNAKNTVYLQMNSLKPEDTAVYYCASVGGRFFAPYIWSVDSYDYWGQGTQVTVSS | high polyreactivity
QVQLVESGGGLVQAGGSLRLSCAASGRIFGVNAMGWYRQAPGKERELVAAIRYRDGSTYYADSVKGRFIISRDNAKNTVYLQMNSLKPEDTAVYYCNALHQRFYAQPGDYWGQGTQVTVSS | high polyreactivity
QVQLVESGGGLVQAGGSLRLSCAASGSIFGQNAMGWYRQAPGKEREMVDAITSGAGITYYADSVKGRFTISRDNAKNTVYLQMNSLKPEDTAVYYCNAVPSWSPSALFDYWGQGTQVTVAS | low polyreactivity
QVQLVESGGGLVQAGGSLRLSCAASGITFPYYAMGWYRQAPGKERELVAAITTGGGSTYYADSVKGRFTISRDNAKNTVYLQMNSLKPEDTAVYYCAAANLRARTGPRRGYEYWGQGTQVTVSS | high polyreactivity
HVQLLESGGGLVQAGGSLRLSCAASGFTFRSYAMGWYRQAPGKERELVAAISGSGGSTYYADSVKGRFTISRDNAKNTVYLQMNSLKPEVTAVYYCAARRSKNSALGGRVSIGDYWGQGTQVTVSS | high polyreactivity
QVQLVESGGGLVQAGGSLRLSCAASGSIFYTYAMGWYRQAPGKERELVASITNDDSTNYADSVKGRFTISRDNAKKTVYLQMNSLKPEDTAVYYCADDSNWIYDIEYDYWGQGTQVTVSS | low polyreactivity
QVQLVESGGGLVQAGGSLRLSCAASGRIFRWYAMGWYRQAPGKERELVARITSGSSTYYADSVKGRFTISRDNAKNTVYLQMHSLKPEDTAVYYCATRTLQPGYTYPRYYWGQGTQVTVSS | high polyreactivity
QVQLVESGGGLVQAGGSLRLSCAASGRIFVYNAMGWYRQAPGKERQLVAAIRNDGSTNYADSVKGRFTISRDNAKNTVYLLMNSLKPEDTAVYYCAKSVTGWRGLWYTPRNYYWGQGTQVTVSS | high polyreactivity
QVQLVESGGGLVQAGGSLRLSCAASGRIFWYNAMGWYRQAPGKQRELVAAITSGGRTYYADSVKGRFTISRDNAKNTVYLQMNSLKPEDTAVYYCAATYPSYTYDYWGQGTQVTVSS | low polyreactivity
QVQLVESRGGLVQAGGSLGLSCAASGPTFFYNAMGWYRQAPGKERELVAAISSGGGSTYYADSVKGRFTISRDNAKNTVYLQMNSLKPEDTAVYYCAGASYRQPGYGYWGQGTLVTVSS | high polyreactivity
QVQLVESGGGLVQAGGSLRLSCAASGRTIKRYAMGWYRQAPGKERELVATISRSGSSTYYADSVKGRFTISRDNAKNTVYLQMNSLIPEDTAVYYCNAYVPDIWVNGYDSWGQGTQVTVSS | high polyreactivity
QVQLVDSGGGLVQAGGSLRLICPASGSIFSTYAMGWYRQAPGKERELLAAINRGTSTNYADSVKGRFTISRDNAKNTVYLQMNCLKPEDTAVYYCAAYYRGRYGPRRSEYWGQGTQVTVSS | high polyreactivity

Sequence | polyreactivity (PSR sort gate)
QVQLVESGGGLVQAGGSLRLSCAASGSIFGYYAMGWSRQAPGKERELVAAISASGGSTYYADSVKGRFTISRDNAKNTVYLQMNSLKPEDTAVYYCAKVDWEQGFWVEYDHYDYWGQGTQVTVSS | high polyreactivity
QVQLVESGGGLVQAGGSLRLSCAASGFTFVYYAMGWYRQAPGKEREFVAAISLSGGSTYYADSVKGRFTISRDNAKNTVYLQMNSLKPEDTAVYYCATDWSLRIERDYGYWGQGTQVTVSS | low polyreactivity
QVQLVESGGGLVQAGGSLRLSCAASGFTFSAYTMGWYRKAPGKERELVAAISWGGGSTFYADSVKGRFTISRDNAKNTVYLQMNSLKPEDTAVYYCNKQYVHPYDYWGQGTQVTLSS | high polyreactivity
QVQLVESGGGLVQAGGSLRLSCAASGRTFSYYAMGWYRQAPGKERELVAAISRSGVTTHYADSVKGRFTISRDNAKNTVYLQMNSLKTEDTAVYYCNKVYYYVGTLDYWGQGTQVTVSS | high polyreactivity
QVQLEESGGGLVQAGGSLRLSCAASGSIFVGNVMGWYRQAPGKERELVAAITYSGGSTYYADSVKGRFTISRDNAKNTVYLQMNSLKPEDTAVYYCAKPSRVSIGYDYWGQGTQVTVSS | low polyreactivity
QVQLVESGGGLVQAGGSLRLSCAASGIIQVYNTMGWYRQAPGKERELVAAINYSGGSTNYADSVKGRFTISRDNAKNTVYFQMNSLKPEDTAVYYCNARYGGFNVPYLRYEHWGQGTQVTVSS | low polyreactivity
QVQLVESGGGLVQAGGSLRLSCAASGIIIKRNAMGWYRQAPGKEMELVAAISRSGGSTYYSDSVKGRFTISRDIAMNTVYLQMNSLKAEDTAVYYCAADWSEYPYDYWGQGTQVTVSS | low polyreactivity
QVQLVESGGGLVQAGGSLRLRCAASGFTFQNYVMGWYRQAPGKESELVAAINSGGRTYYADSVKGRFTISRDYANNTVYLQMNSLKPEDTAVYFCKDRRGHYWGQGTQVTVSS | high polyreactivity
QVQLVESGGGLVQAGGSLRLSCAASGRIFAYNAMGWSRQAPGKERELVAAITWSGGTTYYADSVKGRFTISRDNAKNTVYLQMNSLKPEDTAVYYCAASRRYGGYRFDYWGQGTQVTVSS | high polyreactivity
QVQLVESGGGLVQAGGSLRLSCAASGSIFGYYAMGWYRQAPGKERELVAAISWSGGSTYYADSVKGRFTISRDNAKNTVYLQMNSLKPEDTAVYYCAATSRGNDSQKYYYWGQGTQVTVSS | low polyreactivity
QVQLVESGGGLVQAGGSLRFSCAASGSTFTTNVMGWYRQAPGKERELVAAISWSSGSTYYADSVKGRFTISRDNAKNTVYLQMNSLKPEDTAVYYCAARLVIFYPYSRYYYWGQGTQVTVSS | high polyreactivity
QVQLVESGGGLVQAGGSHRLSCAASGRTFYAYAMGWYRQAPGKERELVAANRYSGGRTYYADSVKGRFTISRDNAKNTVYLQMNSLKPEDTGVYYCAREWSRGSYVDYDYWGQGTQVTVSS | high polyreactivity
QVQLVESGGCLVQEGGSLRLSCAASGFTFRWYTMGWYRQAPGKERELVASIRYGGGSTYYADSVKGRFTISRDNAKNTVYLQMNSLKPEDTAVYYCAAYVRTYRGYYWKAFDYWGQGTQVTVSS | high polyreactivity
QVQLVESGGGIVQAGGSLRLSCAASGRIFDNYVLGWYRQAPGKERELVAAISSGGGTYYADSVKGRFTISRDNAKNTVYLQMNSLKPEDTAVYYCAKRRVYDRSFGRYDYWGQGTQVTVSS | low polyreactivity
QVQLVESGGGLVQAGGSLRLSFAASGLIGRYAMGWYRQAPGKERELVAVITSGDSTYYADSVKGRFTISRDNAKNTVYLQMNSLKQEDTAVYYCAADSYRRWGNLFTGNEYDSWGQGTQVTVSS | low polyreactivity
QVQHVESGGGLVQAGGSLRLRCAASGRTFKKYAMGWYRQAPGKAWELVAAITGSGGSTYYADSVKGRFTFSRDNAKNTVYLQMNRLKPEDTAVYYCAAYAYGVWQSQDGGNYWGQGTQVTVSS | low polyreactivity
QVQLVESGGGLVQAGGSLRLSCAASMGLYRQAPGKERDLVATITSDAGTNYADSVKGRFTISRDNAKNTVYLQRNSLKPEDTAVYYCNADGYDSSDFGEGDYWGQVTQVTVSS | low polyreactivity
QVQLVESGAGLVQAGGSLRLRCAASRRSFRNYAMGWYRPAPGKEREVVAAIRSGVRTYYADSVKGRFTISRDNAKNTVYLQMNSLKPEDTAVYYCAVATGLLYKSHGYWGQGTQVTVSS | low polyreactivity
QVQLVESGGGLVQAGGSLRLSCAASGRTFKYYAMGWYRQAPGKERELVAAISGSGGSTYYADSVKGRFTISRDNAKNTVYLQMNSLKPEDTAVYYCATGGGKTRSYNYWGQGTQVTVSS | high polyreactivity
QVQLEESGGGLFQAGGSLRLSCAASGRIFDPYAMGWYRQAPGKERDLVATITLRGGITYYADSVKGRFTISRDNAKNTVYLQMNSLKPEDTAVYYCAKKVRSYVRWEYDYWGQGTQVTVSS | low polyreactivity
QVQLVESGGGLVQAGGSLRLSCAASGSIFNRYAMGWYRQAPGKERELVAAISSTGSTYYADSVKGRFTISRDNAKNTVYLQMNSLKPEDTAVYYCNADATHDWLRVDTYEYWGQGTQVTVSS | low polyreactivity
